Laboratory results published in the DeepSol protein solubility set.

Assay: soluble on expression in E. coli; label from the status in PepcDB or PDB records

| Sequence | soluble on expression in E. coli |
| --- | --- |
| MGRQAFEFGLRPKDQFKVMQHFDLNTNHLEVLNRLYTPLIGTQAVGLYHFMTQFVKDSHNETLILSHYIFMNELKINLLEFRQQMDLLEAIGLLKAFVKHDEQETQFVYQLIQPPSAHLFFNDPMLSIFLYSEVEHRRFHELKKYFEYQQIDLSEFKQVTRQFTDVFKVPSTKIDIDTSDIPINEPYQGIDLSNESFDFEMLRQMLGKHFISQDIVTKDAKRLITQLATLYGLTADGMKHVILNSITSGQQLSFEEMRKQARSYYLMEHENQMPKLQVKSPATSSSTGKSSEVNPKPQSDEWFELLEQTSPIDMLASWSESEPTISQKTMVEELIEREKMSFGVINILLQFVMLKEDMKLPKAYILEIASNWKKKGIKTAKEAYNYAKKVNQPKNEGSSGNYQKRGSYYGQRNRISKEKTPKWLENRDKPSEEDSAKDNSVDDQQLEQDRQAFLDKLSKKWEEDSR | not soluble |
| MGSANGKTLGEVWKRELNLLDKRQFELYKRTDIVEVDRDTARRHLAEGKVDTGVAVSRGTAKLRWFHERGYVKLEGRVIDLGCGRGGWCYYAAAQKEVSGVKGFTLGRDGHEKPMNVQSLGWNIITFKDKTDIHRLEPVKCDTLLCDIGESSSSSVTEGERTVRVLDTVEKWLACGVDNFCVKVLAPYMPDVLEKLELLQRRFGGTVIRNPLSRNSTHEMYYVSGARSNVTFTVNQTSRLLMRRMRRPTGKVTLEADVILPIGTRSVGSSSHHHHHH | soluble |
| MGSDKIHHHHHHAALYARWAPTHSAAPAAEQQRKVLFWYDPMYPNTRFDKPGKSPFMDMDLVPKYADEEHAAAGAPGVRIDPTQTQNLGVKTAAVTRGPLRYAQTFPANISYNEYQYVIMQARAAGFINKVYPLTVGDKVKQGTPLLELTIPDWVEAQSEYLLLQETGGTATQVEGILERLRLAGMPDDDIRRLKATRKIQTRFTLTAPIDGVITAFDLRAGMNIAKDNVVAKIQGMDPVWVSVAVPESIAWLIKDASQFSIQVPAWPGKTFRISKWTLLPSVDSATRTLQLRLQVNNPDEALKPGMNAYLQLTSESAPMLLIPSKALIDSGSEQRVITVDNEGRFVPKRVQVFHESAGVTAIRSGLQEGEKVVARGLFLIDSEANIAGALERMRAQAPDAAASAAHAH | not soluble |
| MGSDKIHHHHHHADGNDPVENSVSTYLLEKTYGARSVTYEENNSDKLKLSELPAISLSEADHILSVLRKHTDAQEELDIQTATKGEQTWLRIVMKQTIDHKYAFTIQLNMNCYNDGSLYYGGYQAECSSSLIKWYLKGFSLATDNATKNYKFESQSYIYMKVIDNGIKYMQIPVTINGNYNPQNHDAAFSYNL | not soluble |
| MGSDKIHHHHHHAEVAVPDTTPKDTASAVKITYEDPRDPFEGFNRVMWDFNYLYLDRYLYRPVAHGYNDYIPLPAKMGVNNFLQNLEEPSSVVNNLLQGKWGWAANAGGRFTVNTTIGLLGVIDVADMMGMTRKQDEFNEVLGYYGVPNGPYFMAPFAGPYIVRELASDWVDGLYFPLSELTMWQSVLKWGLKSLHARASAIDQERLVDNALDPYAFVKDAYIQHMDYKVYDGNVPQKQEDDELLDQYMQELE | not soluble |
| MGSDKIHHHHHHAEVPVSDTIQQEAPAKVQITYDDPRDPFEGFNRAMWDFNYLYLDRYLYRPVAHGYNDYIPMPAKTGINNFVQNLEEPSSLVNNVLQGKWGWAANAGGRFTINSTVGLLGVIDVADMMGMSRKQDEFNEVLGYYGVPNGPYFMAPFAGPYVVRELASDWVDGLYFPLSELTMWQTIVKWGLKNLHSRASAIDQERLVDNALDPYAFVKDAYLQHMDYKVYDGNVPQKQDDDELLDQYMQELE | not soluble |
| MGSDKIHHHHHHAGCEEEASLSARSVVEAGETEREKTELDKWILDTFTRPYGIEVEYRWDKNAVQNGSYIYPPEVANVKSVLNTIKTLWIDLYTAPELGGDKFLLGKNPLKIYMYGGRNVDGNGMELLDNLEATTNEMFLYNVNDFNPQDEDKVFILMRSVHHQFARHLMELFPYDRSKFLSISRNKYIESTKSIAWIFKGETQGRRGFILAGYPNKKGFFTFHSLLSPEKDFAEIISLKLTYGPKDLLQALDRAKTPYNAGSDKDLQKEYDEQALQAYKELVEKQAFVEDYFSKEIKISLNYLQLISMKQVKEFINKK | not soluble |
| MGSDKIHHHHHHAGCKTSKVVKTTPVEPAYLSSKLQLTVPNKNGSMTVSGSMKMKSGERIQLSVLMPVFRSEVMRMEVTPDEVLLIDRMNKRYVRATRDELKGILPENADFDRLEKLLFKASLPGEKKELTGRELGIPSLEKAKVRLSDFSTAEFELIPTEVSSRYTQVALEDLLKMLMKL | not soluble |
| MGSDKIHHHHHHAKSEMAFAGKGEISPRAITMWDFSWLERRWPGAGYEDWDQVLDELSERGYNAIRIDAYPHLIAENPMKKWLLKEVWNQQDWGSPDMNEVQVQPNLNLFLSKCKERDIKVGLSSWYRLDVDEVCLKLDTPEKLADCWLTILRSIEEDGLLDTILYVDLCNEWPGDSWAPFFAKTYPNVGWGNWYKEESLRWMKTSLEKMRQVYPDMPFLYSFDHGDVKKYEEVDCSFLDLYEHHIWMAQQNGGEFYKLVGYGYNRFLPDDYKNVVKNAERVYRERPGYWQKLLTDKIELMASVARKNRRPLVTTECWGLVDYKDWPLLKWDWVKDLCELGTITAARTGMWVGVATSNFCGPQFAGMWRDVEWHKRLTSIIRSSPLDESLTKNNEVAAKLLKRL | not soluble |
| MGSDKIHHHHHHAQFKKFNLGKAIQAGKDAAQAISLSDADIAAMSKEYMEWMDKHNPLTKPDSEYGKRLERLTGNIKEVDGMKVNFGVYEVVDVNAFACGDGSVRICAGLMDVMTDEEVMAVIGHEIGHVIHTDSKDAMKNAYFRSAVKNAAGAASSQVAKLTDSELGAMAEALAGAQYSQKQEYEADAYGVEFCVKNNIDPYGMYKSLNKLLELSNGAPASSYMQRMFSSHPDTAKRVARAKELADKYKQ | not soluble |
| MGSDKIHHHHHHARDTLFVNLTDATDSQSLKLSDFGNTVRYVPLETNEVCLIGNNPHIALLEDKIVIATKDQCFLFHKQTGKYICSIGHIGDDPSGYSSTNYWIDDAGLFYFFRAPDQLLKYNQKGEMTGKIQIPHIPAAPDFFAFSDSTIIAHCNSSIGLESSNSLLFLNSFGEKLDSIPNLLKSPSIPSPDNISSLSIIKRGAGFFGNLGRRGVMIIKDKEQGELLLPLYNPSLWSSENEVRFRETFTDTIYTIKNRKLYPYMVFHTDTDHSSANPLWYSNPQSIYVAYVLENTHSVFFQYVKNKQVYNGLYNKETQQTKFAKCQQFIVDDLTSEQELKVDLSALCSYKGEYGFILEAASIPDASQKQSDNKNENIPHWMSQLDEDANPVIAIVSDK | not soluble |
| MGSDKIHHHHHHARRNILRQTWMSKANSEIVANGRMKPLFLVGLTPGEYKMKKMVMQEAKLYGDIIVVDMNDNYEELTYKSLAILLYGVSKAPRYQMIGKIDEDVMFFPDKLTELYDQGFIDATPLRIYGLKMQSGANIFRDKTHRWYVPESSYSCSKFPEYVSGMLYMVTWEAAQQIIKSTKYRDFIQVEDVFLTGILAEDLGISVKNLP | not soluble |
| MGSDKIHHHHHHASCDKFDEINTDPDATTKVTSSLLATGLLLDITSSSASKSFIYDELLAKQMAWGESMEDYQYNVFGRSGFGGYTTLINAQKMVESVSDDNVNAYDGLAHFIKAYKIFYMSMEMGDLPYEEALQGELGLVRPKYNTQKEVMNFILSDLETAYELFSTAKDFDGDPILGGSISKWKKATTAFQLKVLMHLSKKESDADLKVKERFARIVASGSLMESNEDNLQMKYADKANTVYPFHNTNTKHAGYAMLSTMLIDKFKATGDIRMFYYAKPAKAKLNEGVTADSWDAYIGTDPSLPFEQIEKAYATEQYSGFNARYTDYPSGEPVVRLGYAEQNFILAEAAVRGWISGDASAYYKKAIRAHMEFIASNTPDEEVYHHGHPITEEAIAAFLETPAIQLSGEKEEDIEKILTQRYLASFMQHPYDVYYDYRRTGYPVLPINPATNRNTMNDRLPMRWMYPKSESDYNLEHQNEALERQFGGVDDVNKLMWILQ | not soluble |
| MGSDKIHHHHHHASGFTLGKDILSYVAVGDSFTEGLDDPYPDSARFPQGRYRGWADRFAEHLARHVREVRYANLAVRGKLLRQILTEQLPRAVELRPDLVTLCAGGNDILRPGSDPDTLADAFEGAVRQLRDTGADVVIFTGFDTGFQPVMRHLRGKIATYNMHLRGIADRYHCRVVDLWSMKIFQDRRAWSDDRLHLSAEGHRRLALRVCEVMGVPVDEDWNAPWPQEPPAPWHQARQEDLRWARQHLVPWIHRRLTGRSSGDGVRPKRPNLEPLVRR | not soluble |
| MGSDKIHHHHHHASKIKQVGSTNLEPTTAYIRNYKATGSNAIYNKPGKLSGSKVVASASTAKAQSVLHGYKVAKLSNKSYYMKVVSFDGRYRGYIYVGKKNPVNNFKKVGGGLTYLSTTTSTSLTNNDKKDLSFAKPGTDTQIYKAPKGSQYKVGAAVKDTTDYKGHKLVASKAAMNDMDGQKWLYVSDVTEPTNASGWVLASQLTDYVAPKAPVSVGNDQTTVTKNWQREFYNPATGTKAYSFDNLNLPLLGTSGGSNVNWTTAVKKFNSDATVKGDKKDVVPADTLATAFKNSGLSTVYMKVTPTLLARIPGGLLDKIDSYSGLYMKFDLDMDNIPTTTHYGDQLKLAYKLDNTNLYYKPVISLGGLTNTNADGYAALPVQLNAMNTLWGLLYQ | not soluble |
| MGSDKIHHHHHHAVTSCLDTEEIEYSPDATIHAFALDTIHGVNYKFTIDQLGPDGVGLIYNQDSLPVGSDTIIDRILIKTLTTTSGIITAKNAEGQDTLFNYSDSIDFRGTMQKPMRIKVWAADMQYTKEYTISVRVHQQDPDSMNWTKMTDNFANYSGYQKSVTLNEDLLIYTSNTTAYQSSGDVISKGRSWTPVSITGLPDNIKLSSIISFGGKLYATNGESAYVSSDGALWNVATDLNKNGKVEMLIAPFPKNEGNLLGISGIAGIINNGDQSTFAITNPEATAWNIGSETVGADFPLENLSATSYLTATGIQTIAVMGNNRNANDTTSIAWTSQDGLLWIPLKTSSSTAYCPKLDNPSFFYYDNAFLAFGGNFETIYTSEAGIAWYKANKKIFLPAEFKDRGNNYSTVVDKNNFIWVIWSNGGANEVWRGRINKFGFKRQNNN | not soluble |
| MGSDKIHHHHHHAVVPGKKDFINENTPGSKVVQTPEGAWFKDDKNRQEWSITSEDGLRLKAIYLPADKKSNRTVIMAHGYMGSAETMSVFAKMYHDWGYNVLAPDARGHGKSQGDYIGFGWPDRKDYVQWIEKVLTENGQQEQITLYGVSMGAATVMMTSGEKLPDNVKAIVEDCGYSTVNQELQYQLKELFNLPSFPLVNVTSGITKLRAGYFFGEASAVKQLQKNHLPMLFIHGENDTFVPFSMLDEVYNATQGPKEKYVVPGAEHAKAYNKNPEKYKETVAAFLDKYIK | not soluble |
| MGSDKIHHHHHHDDTLTSGTITIAVDETFRPIIEEELQVFYALTPDATVHPIYCSEVEAMKLLLADSVRLAITTRQLTRQETAYLNDKKFFPVSVKMATDGLALIVNKQNTDSLITVDQFKEILTGKVTDWKQLNPASRLGELQLVFDNPNSSTVHYVLDSICGGMPLSKDLKAQKTNPEVISYVAKNPAALGVIGVNWIGNPADSTRLSFNDVIRIMAVSRADSATVGNSFKPYQAYLALNQYPLTRNVYILLNDPKSGLPSGLTSFLTDFRGQRIILKSGLVPATAAVRIVDVKEE | not soluble |
